# Assay results published in patent US20240400621A1, “PEPTIDES FOR METABOLIC SYNDROME” (ALPARIS, S.A. de C.V., priority 2021, published 2024).
# Assays:
# insulin = assay: Insulin levels (secretion in response to glucose) in mice fed a high-fat diet; assay type: in vivo, mice (C57BL/6JN); conditions: 12 weeks; versus DAG group
# Protocol: For all the in vivo testing, male mice of the C57BL/6JN strain between 8 to 10 weeks of age were used, housed in groups of 3 to 5 mice per cage with food and water ad libitum in ventilated racks, and whose microbiota were unified for 4 weeks.
# The mice received either 200 μL of a phosphate buffer solution (PBS) at pH 7.5 (as a vehicle), or 200 μL of the PBS solution, with each of the intragastric treatments daily for 12 weeks. They were fed either a Normal Diet (DN, Harlan, Teklad 2018SX) with 18% of the calories coming from fat, or a High-Fat Diet (DAG, Research Diets, D12491), with 60% of the calories coming from fat.
# All the mice were randomly divided into five experimental groups in order to study the effect of SEQ ID NO: 3 and SEQ ID NO: 2 correctly: • Group 1—Mice with DN that received 200 μl of PBS intragastrically. • Group 2—Mice with DAG that received 200 μl of PBS intragastrically. • Group 3—Mice with DAG that received 200 μl of PBS with SEQ ID NO: 3 intragastrically at a dose of: 2.5 μg/mouse. • Group 4—Mice with DAG that received 200 μl of PBS with SEQ ID NO: 2 intragastrically at a dose of 0.6 μg/mouse (high dose). • Group 5—Mice with DAG that received 200 μl of PBS with SEQ ID NO: 2 intragastrically at a dose of 0.2 μg/mouse (low dose).
# This means that the peptide SEQ ID NO: 3 improves insulin sensitivity, preventing insulin resistance from developing.
# [1] = Aggregation during ultrafiltration / buffer change; assay type: physicochemical
# Text: The protein of SEQ ID NO. 1, expressed in recombinant form in this invention, contains a tag of six residues of histidine at the carboxyl terminal end, allowing it to be purified by immobilized metal cation affinity chromatography (IMAC). Purification was initially evaluated with the soluble fractions of the two strains that were used for recombinant production, obtained by enzymatic lysis and sonication. The first approach with the Ni-NTA Agarose resin allowed for the recovery of 6% of the SEQ ID NO. 1 with a purity of 50-80%. An FPLC Ákta Prime chromatographic system and an XK16/20 column packed with 13 mL of Chelating Sepharose Fast Flow-Ni^+2 resin were used for purification. A minimum imidazole concentration of 30 mM was defined in both the sample to be injected and the equilibrium buffer. Elution was performed with 500 mM imidazole at 6.5 mL/min, resulting in a minimum recovery of 80% of SEQ ID No. 1 with 82% purity. The ultrafiltration of the tangential flow of SEQ ID NO. 1 during the chromatography stage, in order to concentrate and change the buffer, negatively impacted protein quality. However, the dialysis of EQ ID NO.
# However, the aggregation of SEQ ID NO. […] This was corroborated by the SDSPAGE analysis, in which the remaining protein in the soluble fraction presented fragments of lower molecular weight than that of SEQ ID NO. 1, but greater than 25 kDa. On the other hand, the precipitate turned out to be denatured SEQ ID NO. 1, but not degraded.
# Finally, SEQ ID NO. 4 and SEQ ID NO.
molecule,measurement,setting,value
peptide SEQ ID NO: 3 (carboxyl terminal domain of SEQ ID NO: 1) (peptide) QLPIETPANNPEESDEADQAPWTPMPLEIAFQGDRESVLKAMNAITGMQDYLFTVNSIRIRNERMMPPPIANPAAAKPAAAQPATGAASLTPADEAAAPAAPAIQQVIKPYMGKEQVFVQVSLNLVHFNQPKAQEPSED,insulin secretion in response to glucose administration,insulin,statistically significant reduction in insulin secretion
same,aggregation in ultrafiltration operations,[1],no visible aggregation
